Measurements taken from paper PMC10658506 (2023).

T1: soluble human IL-11 receptor extracellular domain, his-tagged (human, UniProt Q14626 24-370)
T1 chain: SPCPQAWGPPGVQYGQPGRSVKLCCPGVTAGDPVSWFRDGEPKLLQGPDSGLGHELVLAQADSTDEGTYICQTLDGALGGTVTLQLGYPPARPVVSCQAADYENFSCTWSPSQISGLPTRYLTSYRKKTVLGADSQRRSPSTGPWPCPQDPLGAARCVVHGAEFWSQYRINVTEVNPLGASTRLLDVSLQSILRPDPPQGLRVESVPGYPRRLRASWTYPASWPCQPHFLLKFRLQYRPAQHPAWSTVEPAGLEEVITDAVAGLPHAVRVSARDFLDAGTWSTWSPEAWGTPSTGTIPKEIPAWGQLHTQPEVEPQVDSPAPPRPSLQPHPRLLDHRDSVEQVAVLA


Target: T1, soluble human IL-11 receptor …
Assay: FACS

Binder | Kd [pM]
yeast-displayed IL-11 IPR (ligand) PGPPPGPPRVSPDPRAELDSIVLLTRSLLADTRQLAAQLRDKFPADGDHNLDSLPTPAMSARALGALQLPGVLTRLRADLLSYLRHVQWLRRAGGSSLKTLEPELGTLQARLDRLLRRLQLLMSRLALPQPPPDPPAPPLAPPSSAWGGIRAAHAILGGLHLTLDWAVRGLLLLKTRL | 220
yeast-displayed wild-type human IL-11 (ligand) PGPPPGPPRVSPDPRAELDSTVLLTRSLLADTRQLAAQLRDKFPADGDHNLDSLPTLAMSAGALGALQLPGVLTRLRADLLSYLRHVQWLRRAGGSSLKTLEPELGTLQARLDRLLRRLQLLMSRLALPQPPPDPPAPPLAPPSSAWGGIRAAHAILGGLHLTLDWAVRGLLLLKTRL | 8200
yeast-displayed IL-11 GIPRDM (ligand) PGPPPGPPRVSPDPRAELGSIVLLTRSLLADTRQLAAQLRDKFPADGDHNLDSLPTPAMSARALGALQLPDMLTRLRADLLSYLRHVQWLRRAGGSSLKTLEPELGTLQARLDRLLRRLQLLMSRLALPQPPPDPPAPPLAPPSSAWGGIRAAHAILGGLHLTLDWAVRGLLLLKTRL | 290
yeast-displayed IL-11 GIPRD (ligand) PGPPPGPPRVSPDPRAELGSIVLLTRSLLADTRQLAAQLRDKFPADGDHNLDSLPTPAMSARALGALQLPDVLTRLRADLLSYLRHVQWLRRAGGSSLKTLEPELGTLQARLDRLLRRLQLLMSRLALPQPPPDPPAPPLAPPSSAWGGIRAAHAILGGLHLTLDWAVRGLLLLKTRL | 190
